Starred links: 1 amine or outer side, 2 acyl side, 3 side chain; linkers in the order of their positions; H or OH if unused. Non-standard residues stand in square brackets, D forms with d. No end group written: not given here. *: point of attachment. Trp(6-F) = N[C@@H](Cc1c[nH]c2cc(F)ccc12)C(=O)O; Trp(7-F) = N[C@@H](Cc1c[nH]c2c(F)cccc12)C(=O)O; Trp(7-Me) = Cc1cccc2c(C[C@H](N)C(=O)O)c[nH]c12; C20 diacid = O=C(O)CCCCCCCCCCCCCCCCCCC(=O)*; d(γGlu) = O=C(O)[C@@H](CCC(=O)[*:2])N[*:1]; C18 diacid = O=C(O)CCCCCCCCCCCCCCCCC(=O)*; γGlu = O=C(O)[C@H](CCC(=O)[*:2])N[*:1]; 2Nal = N[C@@H](Cc1ccc2ccccc2c1)C(=O)O; Cha = N[C@@H](CC1CCCCC1)C(=O)O; Nle = CCCC[C@H](N)C(=O)O; AEEA = NCCOCCOCC(=O)O; Sar = CNCC(=O)O
Molecular target: human GRP receptor (human, UniProt P30550 1-384)
Experiment: cell-based or functional assay

Chain of human GRP receptor (P30550 whole entry): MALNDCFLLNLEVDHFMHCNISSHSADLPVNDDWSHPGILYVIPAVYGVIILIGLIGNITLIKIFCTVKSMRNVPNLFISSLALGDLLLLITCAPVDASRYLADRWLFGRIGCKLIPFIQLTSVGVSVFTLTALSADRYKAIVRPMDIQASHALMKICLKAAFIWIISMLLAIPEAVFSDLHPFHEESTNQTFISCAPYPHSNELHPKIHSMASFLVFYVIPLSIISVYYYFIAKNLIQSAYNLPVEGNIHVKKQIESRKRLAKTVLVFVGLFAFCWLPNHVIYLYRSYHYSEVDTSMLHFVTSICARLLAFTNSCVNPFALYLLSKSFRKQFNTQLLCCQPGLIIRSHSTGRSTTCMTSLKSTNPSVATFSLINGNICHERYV

| Binder | hIP1 GRPR EC50 [nM] |
| --- | --- |
| {C18 diacid}-[γGlu][AEEA][AEEA]GAH[2Nal]AV[dA]HL[Nle]-NH2 (SMILES CCCC[C@H](NC(=O)[C@H](CC(C)C)NC(=O)[C@H](Cc1c[nH]cn1)NC(=O)[C@@H](C)NC(=O)[C@@H](NC(=O)[C@H](C)NC(=O)[C@H](Cc1ccc2ccccc2c1)NC(=O)[C@H](Cc1c[nH]cn1)NC(=O)[C@H](C)NC(=O)CNC(=O)COCCOCCNC(=O)COCCOCCNC(=O)CC[C@H](NC(=O)CCCCCCCCCCCCCCCCC(=O)O)C(=O)O)C(C)C)C(N)=O) [Peptide 126] | 92.5 |
| {C18 diacid}-[d(γGlu)][AEEA][AEEA]GNHWAV[dA]HL[Nle]-NH2 (SMILES CCCC[C@H](NC(=O)[C@H](CC(C)C)NC(=O)[C@H](Cc1c[nH]cn1)NC(=O)[C@@H](C)NC(=O)[C@@H](NC(=O)[C@H](C)NC(=O)[C@H](Cc1c[nH]c2ccccc12)NC(=O)[C@H](Cc1c[nH]cn1)NC(=O)[C@H](CC(N)=O)NC(=O)CNC(=O)COCCOCCNC(=O)COCCOCCNC(=O)CC[C@@H](NC(=O)CCCCCCCCCCCCCCCCC(=O)O)C(=O)O)C(C)C)C(N)=O) [Peptide 9] | 9.4 |
| {C20 diacid}-[γGlu][AEEA][AEEA][AEEA][AEEA]GRH[Trp(7-Me)]AV[dA]HL[Nle]-NH2 (SMILES CCCC[C@H](NC(=O)[C@H](CC(C)C)NC(=O)[C@H](Cc1c[nH]cn1)NC(=O)[C@@H](C)NC(=O)[C@@H](NC(=O)[C@H](C)NC(=O)[C@H](Cc1c[nH]c2c(C)cccc12)NC(=O)[C@H](Cc1c[nH]cn1)NC(=O)[C@H](CCCNC(=N)N)NC(=O)CNC(=O)COCCOCCNC(=O)COCCOCCNC(=O)COCCOCCNC(=O)COCCOCCNC(=O)CC[C@H](NC(=O)CCCCCCCCCCCCCCCCCCC(=O)O)C(=O)O)C(C)C)C(N)=O) [Peptide 122] | 3.88 |
| GNHWAVGHLM-NH2 [GRP-10 (human GRP18-27)] | 15 |
| {C18 diacid}-[γGlu][AEEA][AEEA]GAHWAV[dA]HL[Cha]-NH2 (SMILES CC(C)C[C@H](NC(=O)[C@H](Cc1c[nH]cn1)NC(=O)[C@@H](C)NC(=O)[C@@H](NC(=O)[C@H](C)NC(=O)[C@H](Cc1c[nH]c2ccccc12)NC(=O)[C@H](Cc1c[nH]cn1)NC(=O)[C@H](C)NC(=O)CNC(=O)COCCOCCNC(=O)COCCOCCNC(=O)CC[C@H](NC(=O)CCCCCCCCCCCCCCCCC(=O)O)C(=O)O)C(C)C)C(=O)N[C@@H](CC1CCCCC1)C(N)=O) [Peptide 120] | 443 |
| {C18 diacid}-[γGlu][AEEA][AEEA]GAH[2Nal]AV[dA]HL[Nle][Sar]-NH2 (SMILES CCCC[C@H](NC(=O)[C@H](CC(C)C)NC(=O)[C@H](Cc1c[nH]cn1)NC(=O)[C@@H](C)NC(=O)[C@@H](NC(=O)[C@H](C)NC(=O)[C@H](Cc1ccc2ccccc2c1)NC(=O)[C@H](Cc1c[nH]cn1)NC(=O)[C@H](C)NC(=O)CNC(=O)COCCOCCNC(=O)COCCOCCNC(=O)CC[C@H](NC(=O)CCCCCCCCCCCCCCCCC(=O)O)C(=O)O)C(C)C)C(=O)N(C)CC(N)=O) [Peptide 124] | 2380 |
| {C18 diacid}-[γGlu][AEEA][AEEA]GNHWAV[dA]HL[Cha]-NH2 (SMILES CC(C)C[C@H](NC(=O)[C@H](Cc1c[nH]cn1)NC(=O)[C@@H](C)NC(=O)[C@@H](NC(=O)[C@H](C)NC(=O)[C@H](Cc1c[nH]c2ccccc12)NC(=O)[C@H](Cc1c[nH]cn1)NC(=O)[C@H](CC(N)=O)NC(=O)CNC(=O)COCCOCCNC(=O)COCCOCCNC(=O)CC[C@H](NC(=O)CCCCCCCCCCCCCCCCC(=O)O)C(=O)O)C(C)C)C(=O)N[C@@H](CC1CCCCC1)C(N)=O) [Peptide 119] | 660 |
| GNHWAVXHLX (Palmitoyl-Gly-Asn-His-Trp-Ala-Val-D-Ala-His-Leu-Nle-NH2) [Peptide 10] | 3.8 |
| {C20 diacid}-[γGlu][AEEA][AEEA]GNH[Trp(7-Me)][dA]V[dA]HL[Nle][Sar]-NH2 (SMILES CCCC[C@H](NC(=O)[C@H](CC(C)C)NC(=O)[C@H](Cc1c[nH]cn1)NC(=O)[C@@H](C)NC(=O)[C@@H](NC(=O)[C@@H](C)NC(=O)[C@H](Cc1c[nH]c2c(C)cccc12)NC(=O)[C@H](Cc1c[nH]cn1)NC(=O)[C@H](CC(N)=O)NC(=O)CNC(=O)COCCOCCNC(=O)COCCOCCNC(=O)CC[C@H](NC(=O)CCCCCCCCCCCCCCCCCCC(=O)O)C(=O)O)C(C)C)C(=O)N(C)CC(N)=O) [Peptide 125] | > 10000 |
| {C18 diacid}-[γGlu][AEEA][AEEA][AEEA][AEEA]GAH[Trp(7-F)]AV[dA]HL[Nle][Sar]-NH2 (SMILES CCCC[C@H](NC(=O)[C@H](CC(C)C)NC(=O)[C@H](Cc1c[nH]cn1)NC(=O)[C@@H](C)NC(=O)[C@@H](NC(=O)[C@H](C)NC(=O)[C@H](Cc1c[nH]c2c(F)cccc12)NC(=O)[C@H](Cc1c[nH]cn1)NC(=O)[C@H](C)NC(=O)CNC(=O)COCCOCCNC(=O)COCCOCCNC(=O)COCCOCCNC(=O)COCCOCCNC(=O)CC[C@H](NC(=O)CCCCCCCCCCCCCCCCC(=O)O)C(=O)O)C(C)C)C(=O)N(C)CC(N)=O) [Peptide 121] | 356 |
| {C20 diacid}-[γGlu][AEEA][AEEA]GNH[Trp(7-Me)]AV[dA]HL[Nle][Sar]-NH2 (SMILES CCCC[C@H](NC(=O)[C@H](CC(C)C)NC(=O)[C@H](Cc1c[nH]cn1)NC(=O)[C@@H](C)NC(=O)[C@@H](NC(=O)[C@H](C)NC(=O)[C@H](Cc1c[nH]c2c(C)cccc12)NC(=O)[C@H](Cc1c[nH]cn1)NC(=O)[C@H](CC(N)=O)NC(=O)CNC(=O)COCCOCCNC(=O)COCCOCCNC(=O)CC[C@H](NC(=O)CCCCCCCCCCCCCCCCCCC(=O)O)C(=O)O)C(C)C)C(=O)N(C)CC(N)=O) [Peptide 123] | 60.1 |

Other lines, results leading:

| hIP1 GRPR EC50 [nM] | Binder |
| --- | --- |
| 334 | {C18 diacid}-[γGlu][AEEA][AEEA]GRH[Trp(7-Me)]AV[dA]HL[Nle][Sar]-NH2 (SMILES CCCC[C@H](NC(=O)[C@H](CC(C)C)NC(=O)[C@H](Cc1c[nH]cn1)NC(=O)[C@@H](C)NC(=O)[C@@H](NC(=O)[C@H](C)NC(=O)[C@H](Cc1c[nH]c2c(C)cccc12)NC(=O)[C@H](Cc1c[nH]cn1)NC(=O)[C@H](CCCNC(=N)N)NC(=O)CNC(=O)COCCOCCNC(=O)COCCOCCNC(=O)CC[C@H](NC(=O)CCCCCCCCCCCCCCCCC(=O)O)C(=O)O)C(C)C)C(=O)N(C)CC(N)=O) [Peptide 129] |
| 600 | {C18 diacid}-[γGlu][AEEA][AEEA][AEEA][AEEA]GNH[Trp(6-F)]AV[dA]HL[Nle][Sar]-NH2 (SMILES CCCC[C@H](NC(=O)[C@H](CC(C)C)NC(=O)[C@H](Cc1c[nH]cn1)NC(=O)[C@@H](C)NC(=O)[C@@H](NC(=O)[C@H](C)NC(=O)[C@H](Cc1c[nH]c2cc(F)ccc12)NC(=O)[C@H](Cc1c[nH]cn1)NC(=O)[C@H](CC(N)=O)NC(=O)CNC(=O)COCCOCCNC(=O)COCCOCCNC(=O)COCCOCCNC(=O)COCCOCCNC(=O)CC[C@H](NC(=O)CCCCCCCCCCCCCCCCC(=O)O)C(=O)O)C(C)C)C(=O)N(C)CC(N)=O) [Peptide 133] |
| 1060 | {C18 diacid}-[γGlu][AEEA][AEEA]GAHW[dA]V[dA]HL[Nle][Sar]-NH2 (SMILES CCCC[C@H](NC(=O)[C@H](CC(C)C)NC(=O)[C@H](Cc1c[nH]cn1)NC(=O)[C@@H](C)NC(=O)[C@@H](NC(=O)[C@@H](C)NC(=O)[C@H](Cc1c[nH]c2ccccc12)NC(=O)[C@H](Cc1c[nH]cn1)NC(=O)[C@H](C)NC(=O)CNC(=O)COCCOCCNC(=O)COCCOCCNC(=O)CC[C@H](NC(=O)CCCCCCCCCCCCCCCCC(=O)O)C(=O)O)C(C)C)C(=O)N(C)CC(N)=O) [Peptide 128] |
| > 10000 | {C18 diacid}-[γGlu][AEEA][AEEA]GNHRAV[dA]HL[Nle][Sar]-NH2 (SMILES CCCC[C@H](NC(=O)[C@H](CC(C)C)NC(=O)[C@H](Cc1c[nH]cn1)NC(=O)[C@@H](C)NC(=O)[C@@H](NC(=O)[C@H](C)NC(=O)[C@H](CCCNC(=N)N)NC(=O)[C@H](Cc1c[nH]cn1)NC(=O)[C@H](CC(N)=O)NC(=O)CNC(=O)COCCOCCNC(=O)COCCOCCNC(=O)CC[C@H](NC(=O)CCCCCCCCCCCCCCCCC(=O)O)C(=O)O)C(C)C)C(=O)N(C)CC(N)=O) [Peptide 130] |
| 4.18 | {C20 diacid}-[γGlu][AEEA][AEEA][AEEA][AEEA]GRHWAV[dA]HL[Nle]-NH2 (SMILES CCCC[C@H](NC(=O)[C@H](CC(C)C)NC(=O)[C@H](Cc1c[nH]cn1)NC(=O)[C@@H](C)NC(=O)[C@@H](NC(=O)[C@H](C)NC(=O)[C@H](Cc1c[nH]c2ccccc12)NC(=O)[C@H](Cc1c[nH]cn1)NC(=O)[C@H](CCCNC(=N)N)NC(=O)CNC(=O)COCCOCCNC(=O)COCCOCCNC(=O)COCCOCCNC(=O)COCCOCCNC(=O)CC[C@H](NC(=O)CCCCCCCCCCCCCCCCCCC(=O)O)C(=O)O)C(C)C)C(N)=O) [Peptide 132] |
| 54.2 | {C20 diacid}-[γGlu][AEEA][AEEA]GNHWAV[dA]HL[Nle][Sar]-NH2 (SMILES CCCC[C@H](NC(=O)[C@H](CC(C)C)NC(=O)[C@H](Cc1c[nH]cn1)NC(=O)[C@@H](C)NC(=O)[C@@H](NC(=O)[C@H](C)NC(=O)[C@H](Cc1c[nH]c2ccccc12)NC(=O)[C@H](Cc1c[nH]cn1)NC(=O)[C@H](CC(N)=O)NC(=O)CNC(=O)COCCOCCNC(=O)COCCOCCNC(=O)CC[C@H](NC(=O)CCCCCCCCCCCCCCCCCCC(=O)O)C(=O)O)C(C)C)C(=O)N(C)CC(N)=O) [Peptide 131] |

— patent US20260176319A1 (KALLYOPE, published 2026)
